Assay results reported in US20250283065A1, “TRUNCATED POLYPEPTIDES HAVING PROTEIN LIGASE ACTIVITY AND METHODS OF PRODUCTION THEREOF” (NANYANG TECHNOLOGICAL UNIVERSITY, priority 2022, published 2025).

How the values were obtained:
[1] = test system: peptides PIE {EDANS} YNAL and GIK {DABSYL} SIP; test: FRET ligation kinetics assay; assay type: biochemical
Procedure: Kinetics assay: The kinetic properties of the peptide ligation of the constitutively active PAL were studied using a FRET assay. Two peptides synthesized by GenScript: PIE {EDANS} YNAL (SEQ ID NO:18) and GIK {DABSYL} SIP (SEQ ID NO:19) were mixed at a molar ratio of 1:3. Upon ligation, the peptide PIE {EDANS} YNGIK {DABSYL} SIP (SEQ ID NO: 20) is produced. 50 nM of PAL enzyme is mixed with various concentrations of the peptide mixture. The EDANS fluorescence signal was measured with an excitation wavelength of 336 nm and an emission wavelength of 490 nm. A reduction in EDANS fluorescence signal occurs upon ligation of the two peptides due to quenching by DABSYL. The variation in fluorescence signal for each substrate mixture concentration was measured after addition of the enzyme to initiate the reaction. The rate of decrease in fluorescence signal during the first 30 seconds after enzyme addition was plotted against the substrate concentration to obtain the Vmax, kcat and KM values for each enzyme.
Next, using a FRET ligation assay, the ligase activity of the truncated OaAEP1b-C247A-Δ351 was compared with its acid-activated zymogen counterpart. Briefly, 50 nM of either enzyme was added to a mixture of two peptides A: PIE (EDANS) YNAL (SEQ ID NO:18) and B: GIK (DABSYL) SIP (SEQ ID NO:19). These two peptides were mixed in a A:B molar ratio of 1:3. Upon ligation, the fluorescence signal emission of the EDANS moiety of A (λem=490 nm) becomes quenched by the DABSYL moiety of B. (FIG. 7A). This assay the ligation rate to be followed between both peptides in real-time, giving access to the kinetic parameters of the truncated enzyme.

TrmJ-NAL = test: Conjugation of TrmJ with a fluorescent peptide (SDS PAGE); assay type: biochemical; conditions: 200 nM enzyme, 37° C., after an hour of reaction time
Procedure: Conjugation of TrmJ: A concentration of 200 nM of OaAEP1b-C247A-4351 was used to conjugate 10 μM of TrmJ-NAL with 50 μM of a short fluorescence peptide synthesized by Genscript: GIGGIYRK-FITC (SEQ ID NO:21). This reaction was carried out in a 20 mM NaH2PO4, pH 6.5 at 37° C. for 1 hour with a final volume of 500 μL. A volume of 50 µL of the reaction was mixed with 5×SDS loading dye after 5, 10, 20, 30 and 60 minutes. The amount of conjugated TrmJ-NAL at all time points was then analyzed using SDS PAGE.
To evaluate OaAEP1b-C247A-Δ351 conjugation capability, a protein of 20 kDa, tRNA methyltransferase, TrmJ were conjugated. TrmJ was modified to include the C-terminal OaAEP1b-C247A-Δ351 preferred tripeptide recognition motif (Asn-Ala-Leu). Using 200 nM of OaAEP1b-C247A-Δ351, TrmJ present in the solution was able to conjugate with a short fluorescence peptide consisting of an N-terminal Gly/Ile (GIGGIYRK-FITC) (SEQ ID NO: 21). The conjugation rate at 37° C. was analyzed using SDS PAGE at […] different time points.

[2] = Storage stability of the purified enzyme; assay type: physicochemical; conditions: −80° C.
Procedure: (§1) Refolding and purification of constitutively active OaAEP1b-C247A-4351 using dialysis method: With all steps performed at 4° C., protein purification was achieved by resuspending thawed pellets in 30 mL of lysis buffer (100 mM Bis-Tris, pH 6.5, 500 mM NaCl, 10% (v/v) glycerol), sonicating the pellets followed by clearing the lysates by centrifugation at 58,000 g for 45 min. The insoluble fraction was resolubilized in 10 mL of resolubilizing buffer (50 mM Bis-Tris, pH 6.5, 150 mM NaCl, 1 mM EDTA, 50 mM Glycine, 8 M urea) overnight, with agitation. The concentration of denatured protein was determined using nanodrop and diluted to ˜2 mg mL-1 with buffer 1 (50 mM Bis-Tris, pH 6.5, 150 mM NaCl, 500 mM L-Arginine, 1 M urea, 0.25 mM L-Glutathione oxidized, 2.5 mM L-Glutathione reduced). The diluted denatured protein was dialyzed against buffer 2 (50 mM Bis-Tris, pH 6.5, 150 mM NaCl, 200 mM L-Arginine, 0.125 mM L-Glutathione oxidized, 1.25 mM L-Glutathione reduced) for 8 hr, followed by two buffer exchanges with buffer 3 (20 mM Bis-Tris, pH 6.5, 150 mM NaCl), for a duration of 8 hr for each buffer exchange. The refolded proteins were purified by affinity chromatography (HisTrap column, Cytiva), followed by size exclusion chromatography (HiLoad 16/600 Superdex 200, Cytiva). The proteins eluted as monomers during size exclusion purification. […]

[3] = Refolding from E. coli inclusion bodies (urea solubilization, dialysis); assay type: physicochemical; conditions: urea solubilization followed by refolding
Procedure: as §1

[4] = 50 nM enzyme, peptides A:B molar ratio 1:3

Chain of peptides PIE {EDANS} YNAL and GIK {DABSYL} SIP (as listed by the source): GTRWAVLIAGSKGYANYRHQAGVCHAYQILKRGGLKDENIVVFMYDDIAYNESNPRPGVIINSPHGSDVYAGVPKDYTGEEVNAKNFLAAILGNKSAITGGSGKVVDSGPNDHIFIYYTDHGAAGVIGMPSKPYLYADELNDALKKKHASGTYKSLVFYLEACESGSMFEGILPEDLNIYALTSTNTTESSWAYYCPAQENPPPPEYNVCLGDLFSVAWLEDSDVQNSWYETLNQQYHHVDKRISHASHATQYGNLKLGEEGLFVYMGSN

B1: OaAEP1b-C247A-Δ351: truncated OaAEP1b-C247A construct, residues 352-474 deleted, D351 as C-terminus; constitutively active peptide asparaginyl ligase (protein)
chain: GTRWAVLIAGSKGYANYRHQAGVCHAYQILKRGGLKDENIVVFMYDDIAYNESNPRPGVIINSPHGSDVYAGVPKDYTGEEVNAKNFLAAILGNKSAITGGSGKVVDSGPNDHIFIYYTDHGAAGVIGMPSKPYLYADELNDALKKKHASGTYKSLVFYLEACESGSMFEGILPEDLNIYALTSTNTTESSWCYYCPAQENPPPPEYNVCLGDLFSVAWLEDSDVQNSWYETLNQQYHHVDKRISHASHATQYGNLKLGEEGLFVYMGSNPANDNYTSLDGNALTPSSIVVNQRDAD
- Km [1, 4]: 8.16 µM
- Vmax [1, 4]: 6.40 RFU/see
- ligation activity relative to acid-activated zymogen counterpart (fold less) ([1]; FRET ligation assay): about 2 fold
- conjugation of TrmJ with GIGGIYRK-FITC (TrmJ-NAL): most of TrmJ was labelled with FITC
- storage stability [2]: up to two years
- behaviour during refolding procedure [3]: could be refolded
